{"source": "paper PMC12489474", "about": "“New structural insights into the control of the retinoic acid receptors RAR/RXR by DNA, ligands, and transcriptional coregulators” (Nucleic Acids Research, 2025)", "binders": {"B1": {"name": "DR0 Hoxb13 Cy5 (dsDNA)", "DNA 1": "GAAGGTCAAGGCCAAG", "DNA 2": "CTTGGCCTTGACCTTC"}, "B2": {"name": "IR0 Trim16 Cy5 (dsDNA)", "DNA 1": "GCAGGGTCATGACCCCGC", "DNA 2": "CGCGGGGTCATGACCCTG"}, "B3": {"name": "DR5 Rarb2 (dsDNA)", "DNA 1": "AGGGTTCACCGAAAGTTCACT", "DNA 2": "AGTGAACTTTCGGTGAACCCT"}, "B4": {"name": "DR5 Rarb2 Cy5 (dsDNA)", "DNA 1": "AGGGTTCACCGAAAGTTCACT", "DNA 2": "AGTGAACTTTCGGTGAACCCT"}, "B5": {"name": "NCoRNID (nuclear receptor interaction domain of the Nuclear receptor CoRepressor) (domain or fragment, UniProt Q60974 2059-2325, looked up)", "chain": "QVPRTHRLITLADHICQIITQDFARNQVPSQASTSTFQTSPSALSSTPVRTKTSSRYSPESQSQTVLHPRPGPRVSPENLVDKSRGSRPGKSPERSHIPSEPYEPISPPQGPAVHEKQDSMLLLSQRGVDPAEQRSDSRSPGSISYLPSFFTKLESTSPMVKSKKQEIFRKLNSSGGGDSDMAAAQPGTEIFNLPAVTTSGAVSSRSHSFADPASNLGLEDIIRKALMGSFDDKVEDHGVVMSHPVGIMPGSASTSVVTSSEARRDE", "notes": "Unlabelled form used for SEC-MALS, SEC-SAXS and HDX-MS; also called NCOR1"}, "B6": {"name": "IR0 Trim16 (dsDNA)", "DNA 1": "GCAGGGTCATGACCCCGC", "DNA 2": "CGCGGGGTCATGACCCTG"}, "B7": {"name": "DR1 idealized (dsDNA)", "DNA 1": "CTAGGTCAAAGGTCAGC", "DNA 2": "GCTGACCTTTGACCTAG"}, "B8": {"name": "DR1 idealized Cy5 (dsDNA)", "DNA 1": "CTAGGTCAAAGGTCAGC", "DNA 2": "GCTGACCTTTGACCTAG"}, "B9": {"name": "RAR/RXR heterodimer (RARAΔABF with RXRAΔAB) (complex)", "chain 1": "PRIYKPCFVCQDKSSGYHYGVSACEGCKGFFRRSIQKNMVYTCHRDKNCIINKVTRNRCQYCRLQKCFDVGMSKESVRNDRNKKKKEAPKPECSESYTLTPEVGELIEKVRKAHQETFPALCQLGKYTTNNSSEQRVSLDIDLWDKFSELSTKCIIKTVEFAKQLPGFTTLTIADQITLLKAACLDILILRICTRYTPEQDTMTFSDGLTLNRTQMHNAGFGPLTDLVFAFANQLLPLEMDDAETGLLSAICLICGDRQDLEQPDKVDMLQEPLLEALKVYVRKRRPSRPHMFPKMLMKITDLRSISAKGAERVITLKMEIPGSMPPLIQEMLENSEGLD", "chain 2": "NMASFTKHICAICGDRSSGKHYGVYSCEGCKGFFKRTVRKDLTYTCRDNKDCLIDKRQRNRCQYCRYQKCLAMGMKREAVQEERQRGKDRNENEVESTSSANEDMPVERILEAELAVEPKTETYVEANMGLNPSSPNDPVTNICQAADKQLFTLVEWAKRIPHFSELPLDDQVILLRAGWNELLIASFSHRSIAVKDGILLATGLHVHRNSAHSAGVGAIFDRVLTELVSKMRDMQMDKTELGCLRAIVLFNPDSKGLSNPAEVEALREKVYASLEAYCKHKYPEQPGRFAKLLLRLPALRSIGLKCLEHLFFFKLIGDTPIDTFLMEMLEAPHQMT", "notes": "retinoic acid receptor alpha, residues 82-421 of Uniprot entry P11416; as the chain of m1; as the chain of m2; 1:1 heterodimer by SEC-MALS; this is told in the format of each assay; also called RR–DR0; source: E. coli BL21 (DE3); RAR and RXR purified separately, mixed (2-fold excess of RAR), heterodimer purified by SEC (Superdex 200); not shown: His6, N-terminal, cleaved"}, "B10": {"name": "MmRARAΔABF (retinoic acid receptor alpha without the A/B and F domains) (domain or fragment, UniProt P11416 82-421, looked up)", "chain": "B9 chain 1", "notes": "retinoic acid receptor alpha, residues 82-421 of Uniprot entry P11416 (DBD, hinge and LBD; A/B and F domains removed); In the rows of this molecule it stood as a subunit of the RAR/RXR heterodimer; Vector pET15b; also called RARα; NR1B1; source: E. coli BL21 (DE3), purified (HisTrap HP)"}}, "key": {"[1]": {"molecular_target": "T1, RARalpha dAB dF;RXRalpha dAB (Mus musculus / Homo sapiens (Methods …, UniProt P11416;P19793 82-421;126-462, |))", "experiment": "fluorescence anisotropy; BMS493; Fluorescence anisotropy: 20 mM Tris-HCl pH 7.5, 75 mM NaCl, 75 mM KCl, 2 mM CHAPS, 4 mM MgCl2, 2 mM TCEP, 10% glycerol, 0.5 nM Cy5-DNA, 4 uM ligands, 294 K", "conditions": "protein: recombinant;recombinant, tags: N-terminal His6 (pET15b), copies: 1;1, label: Cy5 on forward strand"}, "[2]": {"molecular_target": "T1, RARalpha dAB dF;RXRalpha dAB", "experiment": "fluorescence anisotropy; AM580 + CD3254; Fluorescence anisotropy: 20 mM Tris-HCl pH 7.5, 75 mM NaCl, 75 mM KCl, 2 mM CHAPS, 4 mM MgCl2, 2 mM TCEP, 10% glycerol, 0.5 nM Cy5-DNA, 4 uM ligands, 294 K", "conditions": "protein: recombinant;recombinant, tags: N-terminal His6 (pET15b), copies: 1;1, label: Cy5 on forward strand"}, "[3]": {"molecular_target": "T1, RARalpha dAB dF;RXRalpha dAB", "experiment": "fluorescence anisotropy; apo; Fluorescence anisotropy: 20 mM Tris-HCl pH 7.5, 75 mM NaCl, 75 mM KCl, 2 mM CHAPS, 4 mM MgCl2, 2 mM TCEP, 10% glycerol, 0.5 nM Cy5-DNA, 4 uM ligands, 294 K", "conditions": "protein: recombinant;recombinant, tags: N-terminal His6 (pET15b), copies: 1;1, label: Cy5 on forward strand"}, "[4]": {"molecular_target": "RARalpha dAB dF;RXRalpha dAB;NCoR NID (Mus musculus / Homo sapiens (Methods …, UniProt P11416;P19793;Q60974 82-421;126-462;2059-2325, ||))", "experiment": "SEC-SAXS, HDX-MS; BMS493; Fluorescence anisotropy: 20 mM Tris-HCl pH 7.5, 75 mM NaCl, 75 mM KCl, 2 mM CHAPS, 4 mM MgCl2, 2 mM TCEP, 10% glycerol, 0.5 nM Cy5-DNA, 4 uM ligands, 294 K", "conditions": "protein: recombinant;recombinant;recombinant, tags: N-terminal His6 (pET15b), copies: 1;1;1"}, "[5]": {"molecular_target": "T2, HsRXRAΔAB (retinoid X receptor alpha without the A/B domain) (human (printed as HsRXRAΔAB; the same …, UniProt P19793 126-462)", "T2 construct": "A/B domain removed; In the rows of this molecule it stood as a subunit of the RAR/RXR heterodimer; Vector pET28b; also called RXRα; MmRXRAΔAB; source: E. coli BL21 (DE3), purified (HisTrap HP, thrombin cleavage, SEC Superdex 75); not shown: His6, N-terminal, cleaved", "T2 sequence (looked up)": "B9 chain 2", "experiment": "HDX-MS; RAR/RXR and RR–DNA (DR0, DR1, DR5, IR0) with and without NCoRNID, with BMS493; 4°C, 20 μM complex diluted 10-fold into deuterated buffer pD 7.5; 4 s to 10 800 s; RAR and RXR read as subunits of the heterodimer", "conditions": "both partners purified"}, "[6]": {"molecular_target": "Alexa488-labeled TIF-2NRID", "experiment": "fluorescence polarisation; steady-state fluorescence anisotropy; RAR/RXR without DNA titrated (from 4 μM, 2-fold dilutions) against 10 nM Alexa488-TIF-2NRID with 12 μM AM580 and CD3254; 20 mM Tris–HCl pH 7.5, 75 mM NaCl, 75 mM KCl, 2 mM CHAPS, 4 mM MgCl2, 5 mM DTT, 10% glycerol"}, "[7]": {"molecular_target": "TIF-2NRID (nuclear receptor interaction domain of the transcriptional intermediary factor 2)", "experiment": "SEC; with SDS–PAGE; complexes of RR–DNA and TIF-2NRID formed in the presence of both agonists (AM580, CD3254)"}, "[8]": {"molecular_target": "Alexa488-labeled TIF-2NRID", "experiment": "fluorescence polarisation; steady-state fluorescence anisotropy; RR–DR0 titrated against 10 nM Alexa488-TIF-2NRID with 12 μM AM580 and CD3254; same buffer"}, "[9]": {"molecular_target": "NCoRNID mut2 (point mutations designed to disrupt the helical folding of the IR region) (UniProt Q60974)", "experiment": "MST; RAR/RXR bound to DR5 DNA (RR–DR5), no ligand (apo); heterodimer titrated against labelled NCoRNID; same buffer, 22°C"}, "[10]": {"molecular_target": "NCoRNID mut1 (IR region replaced by a fully disordered segment) (UniProt Q60974)", "experiment": "MST; RAR/RXR bound to DR1 DNA (RR–DR1), no ligand (apo); heterodimer titrated against labelled NCoRNID; same buffer, 22°C"}, "[11]": {"molecular_target": "Alexa488-labeled TIF-2NRID", "experiment": "fluorescence polarisation; steady-state fluorescence anisotropy; RR–IR0 titrated against 10 nM Alexa488-TIF-2NRID with 12 μM AM580 and CD3254; same buffer"}, "[12]": {"molecular_target": "NCoRNID mut2 (point mutations designed to disrupt the helical folding of the IR region) (UniProt Q60974)", "experiment": "MST; RR–DR5 with BMS493; heterodimer titrated against labelled NCoRNID; same buffer, 22°C"}, "[13]": {"molecular_target": "Alexa488-labeled TIF-2NRID", "experiment": "fluorescence polarisation; steady-state fluorescence anisotropy; RR–DR5 titrated against 10 nM Alexa488-TIF-2NRID with 12 μM AM580 and CD3254; same buffer"}, "[14]": {"molecular_target": "Alexa488-labeled TIF-2NRID", "experiment": "fluorescence polarisation; steady-state fluorescence anisotropy; RR–DR1 titrated against 10 nM Alexa488-TIF-2NRID with 12 μM AM580 and CD3254; same buffer"}, "[15]": {"molecular_target": "B5", "experiment": "SEC-MALS; with SDS–PAGE; complexes of RR–DNA and NCoRNID formed in the presence of BMS493", "conditions": "both partners purified"}, "[16]": {"molecular_target": "T2, HsRXRAΔAB (retinoid X receptor alpha …)", "experiment": "SEC-MALS; purified RAR/RXR heterodimer; single peak, molecular weight matching the heterodimer", "conditions": "both partners purified"}, "[17]": {"conditions": "5' overhang 1 nt at both ends (so in the source)"}}, "data": [{"binder": "B1", "values": [{"measurement": "Kd", "setting": "[1]; blunt", "value": "101 ± 48.1", "unit": "nM"}, {"measurement": "Kd", "setting": "[2]; blunt", "value": "24.1 ± 17.3", "unit": "nM"}, {"measurement": "Kd", "setting": "[3]; blunt", "value": "33.5 ± 16.4", "unit": "nM"}]}, {"binder": "B2", "values": [{"measurement": "Kd", "setting": "[1]; [17]", "value": "29.1 ± 24.2", "unit": "nM"}, {"measurement": "Kd", "setting": "[2]; [17]", "value": "3.8 ± 3.1", "unit": "nM"}, {"measurement": "Kd", "setting": "[3]; [17]", "value": "1.9 ± 1.3", "unit": "nM"}]}, {"binder": "B3", "values": [{"measurement": "binding result", "setting": "[4]; blunt", "value": "binds"}]}, {"binder": "B4", "values": [{"measurement": "Kd", "setting": "[1]; blunt", "value": "15 ± 2", "unit": "nM"}, {"measurement": "Kd", "setting": "[2]; blunt", "value": "2.4 ± 0.9", "unit": "nM"}, {"measurement": "Kd", "setting": "[3]; blunt", "value": "1.7 ± 0.8", "unit": "nM"}]}, {"binder": "B5", "values": [{"measurement": "binding result", "setting": "[5]", "value": "binds"}]}, {"binder": "B6", "values": [{"measurement": "binding result", "setting": "[4]; [17]", "value": "binds"}]}, {"binder": "B7", "values": [{"measurement": "binding result", "setting": "[4]; blunt", "value": "binds"}]}, {"binder": "B8", "values": [{"measurement": "Kd", "setting": "[1]; blunt", "value": "24.6 ± 5", "unit": "nM"}, {"measurement": "Kd", "setting": "[2]; blunt", "value": "8.7 ± 2.9", "unit": "nM"}, {"measurement": "Kd", "setting": "[3]; blunt", "value": "6.1 ± 2.2", "unit": "nM"}]}, {"binder": "B9", "values": [{"measurement": "Kd", "setting": "[6]", "value": 126, "unit": "nM"}, {"measurement": "stoichiometry N", "setting": "[7]", "value": 1}, {"measurement": "Kd", "setting": "[8]", "value": 55.1, "unit": "nM"}, {"measurement": "Kd", "setting": "[9]", "value": 576, "unit": "nM"}, {"measurement": "Kd", "setting": "[10]", "value": 347, "unit": "nM"}, {"measurement": "Kd", "setting": "[11]", "value": 22.7, "unit": "nM"}, {"measurement": "Kd", "setting": "[12]", "value": 538, "unit": "nM"}, {"measurement": "Kd", "setting": "[13]", "value": 27.7, "unit": "nM"}, {"measurement": "Kd", "setting": "[14]", "value": 30.1, "unit": "nM"}, {"measurement": "stoichiometry N", "setting": "[15]", "value": 1}]}, {"binder": "B10", "values": [{"measurement": "stoichiometry N", "setting": "[16]", "value": 1}]}]}
